Here are results for 17 molecules from US20240254222A1 (Bayer, published 2024).

Some results are limits rather than exact numbers.

Holding throughout (test): SPR, captured antibody, Sema3A domain analyte
On the technique in general: Surface plasmon resonance follows binding to a sensor surface in real time, without labels.

The target of test [1] is T1, Dog Semaphorin3A-Sema Domain, TPP-19121 (dog, UniProt Q63548 21-569 (rat entry), limits assumed).
T1 construct: produced inhouse
T1 chain: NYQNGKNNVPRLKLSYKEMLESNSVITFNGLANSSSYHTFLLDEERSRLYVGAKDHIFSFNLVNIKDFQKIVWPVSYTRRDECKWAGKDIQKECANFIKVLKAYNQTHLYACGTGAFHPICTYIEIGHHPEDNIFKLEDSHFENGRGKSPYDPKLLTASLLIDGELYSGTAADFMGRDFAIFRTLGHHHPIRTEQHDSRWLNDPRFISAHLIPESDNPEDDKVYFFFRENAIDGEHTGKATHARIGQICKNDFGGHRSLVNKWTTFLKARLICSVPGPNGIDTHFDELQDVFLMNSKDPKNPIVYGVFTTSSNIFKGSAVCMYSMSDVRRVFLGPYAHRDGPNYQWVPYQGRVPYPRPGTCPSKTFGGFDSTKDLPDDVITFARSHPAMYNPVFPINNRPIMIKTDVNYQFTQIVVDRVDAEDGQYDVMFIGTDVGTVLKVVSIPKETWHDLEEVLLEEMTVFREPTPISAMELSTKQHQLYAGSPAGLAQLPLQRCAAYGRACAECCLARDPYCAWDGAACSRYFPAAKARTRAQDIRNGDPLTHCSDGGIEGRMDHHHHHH
The gist of the method: (§1)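 Kinetics fitted to a 1:1 Langmuir model after double referencing; glycine pH 2.0 regeneration. Sema3A domain analytes (several species) ran at […]-3.125 nM multi-cycle or single 100 nM; Fc-tagged Sema3A at 1.56-200 nM over Fab-captured antibody, otherwise Fc capture. Buffer HBS P+ plus 300 mM NaCl, CaCl₂, MgCl₂, BSA, 25° C.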

Test [2] addresses T2, Pig Semaphorin3A-Sema Domain, TPP-20176 (pig, UniProt Q63548 21-569 (rat entry)).
T2 construct: produced inhouse
T2 chain: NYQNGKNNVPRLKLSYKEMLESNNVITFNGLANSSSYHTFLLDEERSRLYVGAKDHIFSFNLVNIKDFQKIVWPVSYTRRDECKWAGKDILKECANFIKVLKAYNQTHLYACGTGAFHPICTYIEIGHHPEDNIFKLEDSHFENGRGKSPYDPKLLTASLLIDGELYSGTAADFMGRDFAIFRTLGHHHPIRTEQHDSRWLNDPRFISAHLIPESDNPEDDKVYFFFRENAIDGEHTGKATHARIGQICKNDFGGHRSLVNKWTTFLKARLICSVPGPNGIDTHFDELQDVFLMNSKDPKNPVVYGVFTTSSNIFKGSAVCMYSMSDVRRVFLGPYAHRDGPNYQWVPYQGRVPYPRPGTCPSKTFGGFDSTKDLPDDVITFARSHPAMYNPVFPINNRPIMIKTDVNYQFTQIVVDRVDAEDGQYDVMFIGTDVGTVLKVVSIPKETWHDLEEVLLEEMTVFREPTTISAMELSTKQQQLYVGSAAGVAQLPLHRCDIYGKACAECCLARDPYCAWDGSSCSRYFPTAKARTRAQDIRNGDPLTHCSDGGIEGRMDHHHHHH
The gist of the method:
as §1

The target in test [3] is T3, Rat Semaphorin3A-Sema Domain, TPP-19120 (rat, UniProt Q63548 21-569).
T3 construct: produced inhouse
T3 sequence: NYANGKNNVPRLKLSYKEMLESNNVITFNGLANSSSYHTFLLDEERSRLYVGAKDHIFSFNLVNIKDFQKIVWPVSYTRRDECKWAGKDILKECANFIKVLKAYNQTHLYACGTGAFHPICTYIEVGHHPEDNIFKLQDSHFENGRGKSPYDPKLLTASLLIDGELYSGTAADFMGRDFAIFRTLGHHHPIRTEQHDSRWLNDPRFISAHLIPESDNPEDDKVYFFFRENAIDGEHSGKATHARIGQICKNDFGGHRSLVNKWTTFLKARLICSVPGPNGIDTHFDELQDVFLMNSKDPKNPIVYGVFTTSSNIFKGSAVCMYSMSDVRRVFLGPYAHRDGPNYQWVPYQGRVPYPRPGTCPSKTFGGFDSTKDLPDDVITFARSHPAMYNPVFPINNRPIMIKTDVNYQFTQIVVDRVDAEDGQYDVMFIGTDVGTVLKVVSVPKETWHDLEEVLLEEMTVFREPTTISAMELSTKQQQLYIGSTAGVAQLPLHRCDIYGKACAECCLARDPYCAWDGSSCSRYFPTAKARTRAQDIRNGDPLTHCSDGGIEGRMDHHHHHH
The gist of the method: as §1

B1: TPP-30788 (antibody, human IgG1, kappa, V domains shown)
VH: EVQLVESGGGLVQPGGSLRLSCAASGFTFSSYYMSWVRQAPGKGLEWVSTIIKSGGYAYYPDSVKDRFTISRDNSKNTLYLQMSSLRAEDTAVYYCVRGGQGAMDYWGQGTTVTVSS
VL: EIVLTQSPATLSLSPGERATLSCRASQSIGDYLHWYQQKPGQAPRLLIKYASQSISGIPARFSGSGSGTDFTLTITSLEPEDFAVYYCQQGYSFPYTFGGGTKLEIKR
notes: prior art, WO 2020/225400; also called BI clone I; Böhringer (BI) Clone I
Broadly, the Kd is the constant that tells how readily two partners part at equilibrium. A higher Kd goes with weaker binding. For B1, the values for the Kd in test [1], in test [2] and in test [3] were 0.11 nM, 0.038 nM and 0.026 nM, respectively.

B2: TPP-30789 (antibody, human IgG1, kappa, V domains shown)
VH: EVQLVESGGGLVQPGGSLRLSCAASGFPFSSYYMSWVRQAPGKGLEWVSTIIKSGGYAYYPDSVKDRFTISRDNSKNTLYLQMSSLRAEDTAVYYCVRGGQGAMDYWGQGTTVTVSS
VL: EIVLTQSPATLSLSPGERATLSCRASQSIGDYLHWYQQKPGQAPRLLIKYASQSISGIPARFSGSGSGTDFTLTITSLEPEDFAVYYCQQGYSFPYTFGGGTKLEIKR
notes: prior art, WO 2020/225400; also called BI clone II; Böhringer (BI) Clone II
In the case of B2, the Kd came out at 0.11 nM in test [1], 0.039 nM in test [2] and 0.026 nM in test [3].

B3: TPP-30790 (antibody, human IgG1, kappa, V domains shown)
VH: EVQLVESGGGLVQLGGSLRLSCAASGFTFSSYYMSWVRQAPGKGLEWVSTIIKSGGYAYYPDSVKDRFTISRDNSKNTLYLQMNSLRAEDTAVYYCVKGGQGAMDYWGQGTTVTVSS
VL: EIVLTQSPATLSLSPGERATLSCRASQSIGDYLHWYQQKPGQAPRLLIYYASQSISGIPARFSGSGSGTDFTLTISSLEPEDFAVYYCQQGYSFPYTFGGGTKLEIKR
notes: prior art, WO 2020/225400; also called BI clone III; Böhringer (BI) Clone III
As for B3, the results for the Kd in test [1], in test [2] and in test [3] were 0.1 nM, 0.036 nM and 0.022 nM, respectively.

B4: TPP-17755 (antibody, human IgG1, lambda, V domains shown)
VH: EVQLLESGGGLVQTGGSLRLSCAASGFTFSDYAMSWVRQAPGKGLEWVSWIYYDSGSKYYADSVKGRFTISRDNSKNTLYLQMNSLRAEDTAVYYCAKLNGDFDYWGQGTLVTVSS
VL: QSVLTQPPSASGTPGQRVTISCSGSSSNIGNNDVSWYQQLPGTAPKLLIYADSHRPSGVPDRFSGSKSGTSASLAISGLRSEDEADYYCGAWDSSLSGYVFGGGTKLTVLG
notes: also called Samsung; Samsung Prior Art F11
Take B4: the results for the equilibrium dissociation constant (Kd) in test [1], in test [2] and in test [3] were 7.5 nM, 4 nM and 5.4 nM, respectively.

B5: TPP-23337 (antibody, human IgG4 S228P, lambda, V domains shown)
VH: EVQLLESGGGLVQPGGSLRLSCAASGFTFSSYAMSWVRQAPGKGLEWVSAIGYGGDTYYADSVKGRFTISRDNSKNTLYLQMNSLRAEDTAVYYCARRDDYTSRDAFDYWGQGTLVTVSS
VL: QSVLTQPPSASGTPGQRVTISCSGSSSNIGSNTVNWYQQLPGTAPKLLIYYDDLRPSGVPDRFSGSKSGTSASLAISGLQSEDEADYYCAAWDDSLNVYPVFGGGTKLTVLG
Consider B5, for which the Kd was determined as 0.0045 nM in test [1], 0.011 nM in test [2] and 0.11 nM in test [3].

B6: TPP-15370 (antibody, human IgG1, lambda, V domains shown)
VH: EVQLLESGGGLVQPGGSLRLSCAASGFTFSSYGMHWVRQAPGKGLEWVSAIGTGGDTYYADSVMGRFTISRDNSKNTLYLQMNSLRAEDTAVYYCARRDDYTSRDAFDVWGQGTLVTVSS
VL: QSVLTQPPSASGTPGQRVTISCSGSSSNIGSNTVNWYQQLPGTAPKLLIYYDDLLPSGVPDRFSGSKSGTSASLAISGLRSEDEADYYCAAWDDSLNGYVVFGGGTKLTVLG
notes: human IgG1; also called IgG1, hit from panning; parental mAb
With B6, the Kd came out at 22 nM in test [1], 9 nM in test [2] and 14 nM in test [3].

B7: TPP-23373 (antibody, human IgG4 S228P, lambda, V domains shown)
VH: EVQLLESGGGLVQPGGSLRLSCAASGFTFYSYAMSWVRQAPGKGLEWVSAIGYGGDTYYADSVKGRFTISRDNSKNTLYLQMNSLRAEDTAVYYCARRDDYTSRDAFDYWGQGTLVTVSS
VL: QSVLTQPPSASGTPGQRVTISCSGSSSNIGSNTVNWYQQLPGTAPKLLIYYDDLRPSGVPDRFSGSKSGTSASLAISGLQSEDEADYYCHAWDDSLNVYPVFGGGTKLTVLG
B7: the Kd was found to be 0.1 nM in test [1] and 0.078 nM in test [2].

B8: TPP-23345 (antibody, human IgG4 S228P, lambda, V domains shown)
VH: EVQLLESGGGLVQPGGSLRLSCAASGFTFSSYAMSWVRQAPGKGLEWVSAIGYGGDTYYADSVKGRFTISRDNSKNTLYLQMNSLRAEDTAVYYCARRDDYTSRDAFDYWGQGTLVTVSS
VL: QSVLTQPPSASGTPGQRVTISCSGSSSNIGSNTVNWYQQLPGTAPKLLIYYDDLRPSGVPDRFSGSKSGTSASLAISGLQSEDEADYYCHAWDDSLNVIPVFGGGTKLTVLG
For B8, the dissociation constant (Kd) in test [1] is 0.046 nM; in test [2], 0.055 nM.

B9: TPP-23334 (antibody, human IgG4 S228P, lambda, V domains shown)
VH: EVQLLESGGGLVQPGGSLRLSCAASGFTFSSYAMSWVRQAPGKGLEWVSAIGYGGDTYYADSVKGRFTISRDNSKNTLYLQMNSLRAEDTAVYYCARRDDYTSRDAFDYWGQGTLVTVSS
VL: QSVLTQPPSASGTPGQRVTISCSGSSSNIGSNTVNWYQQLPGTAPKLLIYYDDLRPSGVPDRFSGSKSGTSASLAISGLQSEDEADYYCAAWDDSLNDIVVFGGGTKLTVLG
Turning to B9, the dissociation constant (Kd) worked out at 0.0084 nM in test [1], 0.014 nM in test [2] and 0.056 nM in test [3].

B10: TPP-23298 (antibody, human IgG4 S228P, lambda, V domains shown)
VH: EVQLLESGGGLVQPGGSLRLSCAASGFTFYSYAMSWVRQAPGKGLEWVSAIGTGGDTYYADSVKGRFTISRDNSKNTLYLQMNSLRAEDTAVYYCARRDDYTSRDAFDYWGQGTLVTVSS
VL: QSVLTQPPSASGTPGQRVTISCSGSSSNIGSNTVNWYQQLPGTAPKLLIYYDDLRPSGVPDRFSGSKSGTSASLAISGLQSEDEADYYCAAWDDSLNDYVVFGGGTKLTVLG
Turning to B10, the dissociation constant (Kd) was found to be 0.07 nM in test [1], 0.067 nM in test [2] and 0.03 nM in test [3].

B11: TPP-23346 (antibody, human IgG4 S228P, lambda, V domains shown)
VH: EVQLLESGGGLVQPGGSLRLSCAASGFTFYSYAMLWVRQAPGKGLEWVSAIGTGGDTYYADSVKGRFTISRDNSKNTLYLQMNSLRAEDTAVYYCARRDDYTSRDAFDYWGQGTLVTVSS
VL: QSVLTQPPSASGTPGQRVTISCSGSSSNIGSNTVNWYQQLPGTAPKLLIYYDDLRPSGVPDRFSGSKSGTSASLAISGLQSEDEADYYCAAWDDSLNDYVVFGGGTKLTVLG
As for B11, the equilibrium dissociation constant (Kd) in test [1] was 0.061 nM; in test [2] it was 0.058 nM.

B12: TPP-23341 (antibody, human IgG4 S228P, lambda, V domains shown)
VH: EVQLLESGGGLVQPGGSLRLSCAASGFTFSSYAMSWVRQAPGKGLEWVSAIGYGGDTYYADSVKGRFTISRDNSKNTLYLQMNSLRAEDTAVYYCARRDDYTSRDAFDYWGQGTLVTVSS
VL: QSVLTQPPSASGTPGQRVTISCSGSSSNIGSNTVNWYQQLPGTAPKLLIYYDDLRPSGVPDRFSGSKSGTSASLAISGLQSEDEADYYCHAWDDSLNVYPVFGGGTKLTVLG
As for B12, the Kd in test [1] is 0.084 nM; in test [2], 0.086 nM.

B13: TPP-23347 (antibody, human IgG4 S228P, lambda, V domains shown)
VH: EVQLLESGGGLVQPGGSLRLSCAASGFTFYSYAMLWVRQAPGKGLEWVSAIGTGGDTYYADSVKGRFTISRDNSKNTLYLQMNSLRAEDTAVYYCARRDDYTSRDAFDYWGQGTLVTVSS
VL: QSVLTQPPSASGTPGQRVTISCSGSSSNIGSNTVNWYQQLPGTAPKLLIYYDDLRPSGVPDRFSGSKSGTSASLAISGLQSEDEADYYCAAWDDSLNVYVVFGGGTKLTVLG
In the case of B13, the equilibrium dissociation constant (Kd) in test [1] amounted to 0.051 nM; in test [2] it was 0.053 nM.

B14: TPP-23375 (antibody, human IgG4 S228P, lambda, V domains shown)
VH: EVQLLESGGGLVQPGGSLRLSCAASGFTFYSYAMSWVRQAPGKGLEWVSAIGYGGDTYYADSVKGRFTISRDNSKNTLYLQMNSLRAEDTAVYYCARRDDYTSRDAFDYWGQGTLVTVSS
VL: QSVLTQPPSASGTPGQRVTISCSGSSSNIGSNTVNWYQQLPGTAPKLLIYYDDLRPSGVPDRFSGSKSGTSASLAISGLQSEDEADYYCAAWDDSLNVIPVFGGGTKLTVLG
Take B14: the Kd in test [1] worked out at 0.045 nM; in test [2], 0.047 nM.

B15: TPP-23338 (antibody, human IgG4 S228P, lambda, V domains shown)
VH: EVQLLESGGGLVQPGGSLRLSCAASGFTFSSYAMSWVRQAPGKGLEWVSAIGYGGDTYYADSVKGRFTISRDNSKNTLYLQMNSLRAEDTAVYYCARRDDYTSRDAFDYWGQGTLVTVSS
VL: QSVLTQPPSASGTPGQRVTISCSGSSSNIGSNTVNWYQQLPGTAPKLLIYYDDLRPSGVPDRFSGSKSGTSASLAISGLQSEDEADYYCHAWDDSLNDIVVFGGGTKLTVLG
B15: the equilibrium dissociation constant (Kd) in test [1] came to 0.053 nM; in test [2] it was 0.046 nM.

B16: TPP-23374 (antibody, human IgG4 S228P, lambda, V domains shown)
VH: EVQLLESGGGLVQPGGSLRLSCAASGFTFYSYAMSWVRQAPGKGLEWVSAIGYGGDTYYADSVKGRFTISRDNSKNTLYLQMNSLRAEDTAVYYCARRDDYTSRDAFDYWGQGTLVTVSS
VL: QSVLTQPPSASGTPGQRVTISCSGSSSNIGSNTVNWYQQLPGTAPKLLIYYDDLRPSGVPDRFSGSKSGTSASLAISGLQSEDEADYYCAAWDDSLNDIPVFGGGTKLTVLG
In the case of B16, the figures for the Kd in test [1], in test [2] and in test [3] were 0.0073 nM, less than 0.003 nM and 0.0033 nM, respectively.

B17: TPP-23340 (antibody, human IgG4 S228P, lambda, V domains shown)
VH: EVQLLESGGGLVQPGGSLRLSCAASGFTFSSYAMSWVRQAPGKGLEWVSAIGYGGDTYYADSVKGRFTISRDNSKNTLYLQMNSLRAEDTAVYYCARRDDYTSRDAFDYWGQGTLVTVSS
VL: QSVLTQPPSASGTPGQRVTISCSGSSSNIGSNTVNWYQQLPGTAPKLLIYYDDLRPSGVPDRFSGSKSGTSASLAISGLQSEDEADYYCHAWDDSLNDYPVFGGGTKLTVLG
Consider B17, for which the Kd in test [1] was 0.058 nM; in test [2], 0.062 nM.
